This note sets out measurements from article PMC3438196.

Numbering of substitutions follows the chain as printed. Names may count otherwise.

The chains are these.
B1: Apobec3G-GFP MAPPIT bait (pCEL-Apobec3G-GFP), Q9HC16 R30L (protein)
chain: MKPHFRNTVERMYRDTFSYNFYNRPILSRLNTVWLCYEVKTKGPSRPPLDAKIFRGQVYSELKYHPEMRFFHWFSKWRKLHRDQEYEVTWYISWSPCTKCTRDMATFLAEDPKVTLTIFVARLYYFWDPDYQEALRSLCQKRDGPRATMKIMNYDEFQHCWSKFVYSQRELFEPWNNLPKYYILLHIMLGEILRHSMDPPTFTFNFNNEPWVRGRHETYLCYEVERMHNDTWVLLNQRRGFLCNQAPHKHGFLEGRHAELCFLDVIPFWKLDLDQDYRVTCFTSWSPCFSCAQEMAKFISKNKHVSLCIFTARIYDDQGRCQEGLRTLAEAGAKISIMTYSEFKHCWDTFVDHQGCPFQPWDGLDEHSQDLSGRLRAILQNQEN
B2: Apobec3G-GFP MAPPIT bait (pCEL-Apobec3G-GFP), Q9HC16 R102G (protein)
chain: B1 chain with L30R, R102G
B3: Apobec3G-GFP MAPPIT bait (pCEL-Apobec3G-GFP), Q9HC16 R122C (protein)
chain: B1 chain with L30R, R122C
B4: Apobec3G-GFP MAPPIT bait (pCEL-Apobec3G-GFP), Q9HC16 K79M (protein)
chain: B1 chain with L30R, K79M
B5: Apobec3G-GFP MAPPIT bait (pCEL-Apobec3G-GFP), Q9HC16 R78W (protein)
chain: B1 chain with L30R, R78W
B6: Apobec3G-GFP MAPPIT bait (pCEL-Apobec3G-GFP), Q9HC16 H81L (protein)
chain: B1 chain with L30R, H81L

One assay addresses T1, codon optimized Vif SLQ144-146AAA MAPPIT prey (pMG2-VifoptSLQ), P12504. Description: MAPPIT. The following applies: chain shown with the change.
As for B1, the percent of parent was 21 % of WT.

As for B2, the percent of parent was 44 % of WT. On the same count and under the same terms, next, B3: 16 % of WT.

The target of a further assay is T1, codon optimized Vif SLQ144-146AAA …. Description: MAPPIT. The following applies: chain shown with the change. This is another data set of the same source.
As to B1, the percent of parent was 21 % of WT. Still for that read-out and setting: under B2 stands 44 % of WT; under B4, 56 % of WT; under B5, 16 % of WT. With B6, the percent of parent is 53 % of WT.
